pIC50: −log10 of the molar value.

For one test, the target named is HLA-A*02:01. The experiment in a line: IEDB peptide-MHC binding, purified MHC/competitive/radioactivity; ≥ and ≤ were set here for values at or beyond the usual limits of such assays. The note with it: source organism: Bordetella pertussis.
Turning to HLSPALADV, the pIC50 was 6.35.
In the case of STYELLDYL, the negative-log IC50 (pIC50) is 5.10.

For the next test, the target named is HLA-B*07:02. Described as above. The conditions noted are these: source organism: Bordetella pertussis.
For LAARGDGAL, the negative-log IC50 (pIC50) is 5.20.
As to QQLKQADRD, the pIC50 was 4.16.

For another test, the target named is HLA-B*35:01. Described as above. The conditions noted are these: source organism: Bordetella pertussis.
For the sequence LAARGDGAL, the negative-log IC50 (pIC50) was 4.16.
Still for that read-out and setting: next, YAIDGTAAG: 5.63.

For the next test, the target named is HLA-B*44:03. Described as above. The note with it: source organism: Bordetella pertussis.
Take AEGGATLGA: the pIC50 was 4.92.
With LSAALGADW, the pIC50 was 5.93.
As for MEVMLRAVF, the pIC50 is 7.94.

A further test has as its target HLA-B*53:01. The test is described as above. The note with it: source organism: Bordetella pertussis.
As for ASSPDAHVP, the negative logarithm of the IC50 (pIC50) was 4.28.
As for FIYRETFCI, the negative logarithm of the IC50 (pIC50) was 5.18.
LSAALGADW: the pIC50 was 5.77.
On to TVVQRNKHW, for which the pIC50 is 4.16.
As to VGAGGYEAG, the negative-log IC50 (pIC50) is 4.16.
The same measure, in the same setting: next, VSGGSLSAP: 4.26; YAEHGEVSI: 4.94.

A further test has as its target HLA-B*57:01. Described as above. The conditions noted are these: source organism: Bordetella pertussis.
For EKRLDIDDA, the negative-log IC50 (pIC50) was at most 4.15.
With NNETMSGRQ, the pIC50 was at most 4.15.
TVVQRNKHW: the negative-log IC50 (pIC50) was at most 4.15.
On the same count and under the same terms, then VTSVAMKPY, with 5.04.

Source of the values: the Immune Epitope Database (IEDB).
